Test results from patent publication US20240216509A1.

Molecular target: PD-L1 CAR (2nd generation CAR, PDL1-CD28-CD3ζ) expressed on NK-92 cells (human) (UniProt P01732)
Test: cell-based or functional assay

Sequence of UniProt P01732 (P01732 other isoform, or with tags, fused parts or gaps limits assumed): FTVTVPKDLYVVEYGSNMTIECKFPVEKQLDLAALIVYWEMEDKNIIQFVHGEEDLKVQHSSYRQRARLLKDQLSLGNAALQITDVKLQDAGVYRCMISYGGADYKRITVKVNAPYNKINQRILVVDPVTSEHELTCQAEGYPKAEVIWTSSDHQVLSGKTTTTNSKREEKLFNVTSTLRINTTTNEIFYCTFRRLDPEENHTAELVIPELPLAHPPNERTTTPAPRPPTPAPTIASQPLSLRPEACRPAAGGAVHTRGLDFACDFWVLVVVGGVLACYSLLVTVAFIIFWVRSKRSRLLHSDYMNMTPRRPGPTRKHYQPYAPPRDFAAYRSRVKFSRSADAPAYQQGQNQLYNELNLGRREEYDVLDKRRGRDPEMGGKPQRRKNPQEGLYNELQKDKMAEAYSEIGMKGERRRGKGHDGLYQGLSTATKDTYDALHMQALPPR

recombinant human PD-1-Fc fusion protein (rhPD-1-Fc) (from UniProt Q15116 25-167)
EC50 of degranulation of CAR NK-92 over increasing concentrations of plate-bound rhPD-1-Fc: 0.61 µg/mL
